Reference: article PMC4778861, “Type One Protein Phosphatase 1 and Its Regulatory Protein Inhibitor 2 Negatively Regulate ABA Signaling” (PLoS Genetics, 2016)
Values belong to the binder of their own block, whether it stands above or below them.

Biological target: T1, MBP-SnRK2.6 (Arabidopsis thaliana, UniProt Q940H6 1-362)
T1 construct: SNF1-related protein kinase 2.6 (SnRK2.6, OST1), Arabidopsis thaliana, in pMal-c2X; source: E. coli BL21 (DE3), purified (amylose resin); not shown: MBP, N-terminal, kept
T1 sequence (looked up): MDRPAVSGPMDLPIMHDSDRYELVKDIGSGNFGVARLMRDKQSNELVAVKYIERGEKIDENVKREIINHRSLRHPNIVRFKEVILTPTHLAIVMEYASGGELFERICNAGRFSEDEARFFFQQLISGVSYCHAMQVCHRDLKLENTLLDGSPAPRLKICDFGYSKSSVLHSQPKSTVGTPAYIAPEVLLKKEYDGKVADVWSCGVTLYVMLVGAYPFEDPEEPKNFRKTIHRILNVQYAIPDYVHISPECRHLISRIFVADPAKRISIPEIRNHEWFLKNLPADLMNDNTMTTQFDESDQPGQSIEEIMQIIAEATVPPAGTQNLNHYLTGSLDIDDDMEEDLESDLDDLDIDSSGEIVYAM
Assay: pull-down; GST-TOPP1 or GST-AtI-2 incubated with MBP-SnRK2.6 in amylose resin, 4 hours at 4°C, washed 4 times with 1X PBS; SDS-PAGE, coomassie blue
Conditions: both partners purified

binding result: binds
B1: GST-TOPP1 (enzyme, Arabidopsis thaliana, UniProt P30366 1-318, looked up)
chain: MAEKPAQEQEQKRAMEPAVLDDIIRRLVEFRNTRPGSGKQVHLSEGEIRQLCAVSKEIFLQQPNLLELEAPIKICGDIHGQYSDLLRLFEYGGFPPEANYLFLGDYVDRGKQSLETICLLLAYKIKYPENFFLLRGNHESASINRIYGFYDECKRRFNVRLWKIFTDCFNCLPVAALIDDRILCMHGGISPELKSLDQIRNIARPMDIPESGLVCDLLWSDPSGDVGWGMNDRGVSYTFGADKVAEFLEKHDMDLICRAHQVVEDGYEFFAERQLVTVFSAPNYCGEFDNAGAMMSIDESLMCSFQILKPSEKKSPFL
notes: also called GST-tagged TOPP1; source: E. coli, purified (glutathione-agarose beads); not shown: GST, N-terminal, kept

binding result: binds
B2: GST-AtI-2 (natural protein, Arabidopsis thaliana, UniProt Q9LTK0 1-191, looked up)
chain: MTEPKRGRVQWDEANIVEIESNKPVRQKITEPKTPYHPMMDDDGSLSPRGRAFDECVDDMQRAEELRNVLNDAAASSSRNSSQGSGGGGWSSSDEEEEEADPMDQDEEGSGSGKNERFNAHRKAHYDEFRKVKELRSSGSFYEEEEEEDDGAKGSKSETTTNSRHTKGGNKELDATKTVSGTSSSSSPELI
notes: source: E. coli, purified (glutathione-agarose beads); not shown: GST, N-terminal, kept
